# Measured values published in paper PMC11508087 (2024).
# B1: pOA-2 (antibody, V domains shown)
# VH: EEKVVESGGGLVQPGGSLRLSCVGSGFNFKNYEINWVRQAPGKALEWLAYITQTSDFIYYADSVKGRFTISRDNSRNTAYLQMNNLRTEDTARYFCTRAGLTGCKSRHCMYVWGPGAEVVVSS
# VL: QTVIQEPAMSVSLGGTVTLTCGFISGSVTGTNYPSWFQQTPGQPPRLLIYYANSRPTEVPSRFSGAISGNKAALTITGAQAEDEADYFCCLYKTNNNILFGGGTHLTVL
# B2: pOA-1 (antibody, V domains shown)
# VH: EENVVESGGGLVRPGGSLRLSCIFSGFTFSTYSVRWVRQAPGKGLEFLTYIFKNVGDIDTADSVKGRFTISRDNSQNTAYLQMNSLRPEDTARYFCLVANKYWGPGVEVLVSS
# VL: AIVLTQSPLSLSVSPGDSASISCRSSQSLVEDDGSSVLNWYLQRPGQSPQRLIYSAVGRDAGVPDRFSGSGSGTDFTLTISGVEAEDLGVYYCQQSKVSTTFGAGSKLDLK
# B3: pOA-13 (antibody, V domains shown)
# VH: EGQLVQSGGGRVQPGGSLRLVCVGSGDDGLGHYAVTWVRQAPGRGLEWLASDASRVTTTYYADSVKGRFTSTLDIPHNTAYLQMNSLKTEDTARYFCARNVWTLDIWGPGVEVVVS
# VL: QTVIQEPAMSVSLGGTVTLTCAFRGGSVDGDNYPGWLRQQTPGQPPRLLISSTNNRPTGVPSRFSGTISGNKATLTITGAQTEDEADYFCALWNDNNNRLIFGGGTRLTVL
# Legend:
# Experiment in all cases: BLI
# [1] = molecular target: T1, FMDV O/Tibet/99 146S antigen (foot-and-mouth disease virus serotype …)
# FMDV A/AF72 146S antigen [2] = molecular target: T2, FMDV A/AF72 146S antigen (foot-and-mouth disease virus serotype …)
# [3] = molecular target: T1, FMDV O/Tibet/99 146S antigen; remark: listed apart in the source
# FMDV A/AF72 146S antigen [4] = molecular target: T2, FMDV A/AF72 146S antigen; remark: listed apart in the source
Binder,koff [1],koff (FMDV A/AF72 146S antigen [2]),Kd [3],Kd (FMDV A/AF72 146S antigen [4])
B1,0.00242 s⁻¹,0.00249 s⁻¹,4.85 nM,4.44 nM
B2,2.88e-05 s⁻¹,0.00467 s⁻¹,,2.48 nM
B3,0.00143 s⁻¹,0.00634 s⁻¹,1.8 nM,5.11 nM
